The target of experiment [1] is TGFβ1 (R&D systems) (UniProt P01137). The experiment can be described thus: cell-based or functional assay.
For experiment [2] the target is unchanged. Put plainly: cell-based or functional assay. This is another data set of the same source.

Read-outs that look alike come from different tables or passages of the source.

Chain of TGFβ1 (R&D systems) (P01137 279-390 limits assumed): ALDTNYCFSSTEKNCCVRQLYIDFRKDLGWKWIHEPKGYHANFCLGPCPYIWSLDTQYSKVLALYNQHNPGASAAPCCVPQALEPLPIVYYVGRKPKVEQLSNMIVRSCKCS

Turning to “TGFR-Fc (R&D Systems) (from UniProt P37173 24-159) (Fc fusion)”, the IC50 of TGFβ1 activity in HEK-Blue TGFβ cells in experiment [1] was 0.461 nM; in experiment [2], 0.559 nM.

The record behind these values is US20230398151A1.
